From publication PMC9651861 (Science Advances, 2022)

Target: T1, Trimeric His-Tagged SARS-CoV-2 Spike Glycoprotein, labelled with Alexa Fluor 647 (SARS-CoV-2, original (Wuhan-Hu-1) strain, UniProt P0DTC2, Alexa Fluor 647 (N-hydroxysuccinimide ester), estimated 13:1 dye to protein)
T1 construct: also called full trimeric spike protein; spike protein
Test: MST
Details: both partners purified

B1: DesAb-HSA-P2 (VHH)
VHH: EVQLEESGGGLVQPGGSLRLSCAASGFNIKDTYIGWVRQAPGKGEEWVASIYPTSGYTRYADSVKGRFTISADTSKNTAYLQMNSLRAEDTAVYYCAAGSAQAGNAEEAEEEFDYWGQGTLVTVSS
  binding result: no binding (tested: 4 μM)
